The numbers were not newly measured in article PMC4243993, which cites them from elsewhere.

This series has as its target His105 (UniProt position 105, PPVKIHCSILA).

With “Iron-sulfur cluster assembly scaffold protein IscU (Escherichia coli)”, the pKa entry is “around 9”.
